Assay results: paper doi:10.1101/2023.02.18.529070 (bioRxiv, 2023)

B1: recombinant human LRG1 (leucine-rich alpha-2-glycoprotein 1) (ligand, UniProt P02750 36-347, looked up)
chain: VTLSPKDCQVFRSDHGSSISCQPPAEIPGYLPADTVHLAVEFFNLTHLPANLLQGASKLQELHLSSNGLESLSPEFLRPVPQLRVLDLTRNALTGLPPGLFQASATLDTLVLKENQLEVLEVSWLHGLKALGHLDLSGNRLRKLPPGLLANFTLLRTLDLGENQLETLPPDLLRGPLQLERLHLEGNKLQVLGKDLLLPQPDLRYLFLNGNKLARVAAGAFQGLRQLDMLDLSNNSLASVPEGLWASLGQPNWDMRDGFDISGNPWICDQNLSDLYRWLQAQKDKMFSQNDTRCAGPEAVKGQTLLAVAKSQ
B2: neuregulin-beta1 (Ser 2-Lys 246 N-terminal fragment) (ligand, human, UniProt Q02297-6 2-246, looked up)
chain: SERKEGRGKGKGKKKERGSGKKPESAAGSQSPALPPRLKEMKSQESAAGSKLVLRCETSSEYSSLRFKWFKNGNELNRKNKPQNIKIQKKPGKSELRINKASLADSGEYMCKVISKLGNDSASANITIVESNEIITGMPASTEGAYVSSESPIRISVSTEGANTSSSTSTSTTGTSHLVKCAEKEKTFCVNGGECFMVKDLSNPSRYLCKCPNEFTGDRCQNYVMASFYKHLGIEFMEAEELYQK

Target: recombinant human HER3 extracellular domain (human, UniProt P21860 20-643)
Test: BLI

Sequence of recombinant human HER3 extracellular domain (P21860 20-643): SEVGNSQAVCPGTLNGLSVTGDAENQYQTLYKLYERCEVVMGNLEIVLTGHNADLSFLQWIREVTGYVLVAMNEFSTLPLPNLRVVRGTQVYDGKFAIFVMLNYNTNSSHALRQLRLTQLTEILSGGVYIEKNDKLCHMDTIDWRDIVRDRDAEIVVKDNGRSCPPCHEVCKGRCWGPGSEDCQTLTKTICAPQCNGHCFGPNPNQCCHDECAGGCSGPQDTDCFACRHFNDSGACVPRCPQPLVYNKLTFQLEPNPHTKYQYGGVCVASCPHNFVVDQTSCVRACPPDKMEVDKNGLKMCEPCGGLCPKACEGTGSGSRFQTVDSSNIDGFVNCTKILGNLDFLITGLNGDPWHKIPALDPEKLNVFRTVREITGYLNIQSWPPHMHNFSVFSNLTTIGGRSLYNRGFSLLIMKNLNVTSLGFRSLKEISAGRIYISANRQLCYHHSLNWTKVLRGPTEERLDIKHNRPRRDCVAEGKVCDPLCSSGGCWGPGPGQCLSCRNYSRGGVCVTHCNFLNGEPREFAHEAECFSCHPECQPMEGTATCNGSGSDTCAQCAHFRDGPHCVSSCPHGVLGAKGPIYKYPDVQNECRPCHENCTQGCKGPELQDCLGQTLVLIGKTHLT

Row | Binder | Kd [nM] | fold binding affinity against neuregulin-HER3 [fold] | binding result
1 | B1 | 100 | > 3 | 
2 | B2 |  |  | binds
